Earlier results on 3 substances are cited in article PMC3382066.

Values joined by “and” are separate entries in the source; they are usually repeats but may differ in a detail not shown here. Equal entries are not always repeated.

One series concerns the target calmodulin (UniProt P0DP23).
The target of series [1] is smooth muscle myosin (unphosphorylated) (Gallus gallus) (UniProt P10587).
Series [2] has as its target smooth muscle myosin truncated fragment (UniProt P35749).
Sequence of UniProt P35749 (P35749 1-1175): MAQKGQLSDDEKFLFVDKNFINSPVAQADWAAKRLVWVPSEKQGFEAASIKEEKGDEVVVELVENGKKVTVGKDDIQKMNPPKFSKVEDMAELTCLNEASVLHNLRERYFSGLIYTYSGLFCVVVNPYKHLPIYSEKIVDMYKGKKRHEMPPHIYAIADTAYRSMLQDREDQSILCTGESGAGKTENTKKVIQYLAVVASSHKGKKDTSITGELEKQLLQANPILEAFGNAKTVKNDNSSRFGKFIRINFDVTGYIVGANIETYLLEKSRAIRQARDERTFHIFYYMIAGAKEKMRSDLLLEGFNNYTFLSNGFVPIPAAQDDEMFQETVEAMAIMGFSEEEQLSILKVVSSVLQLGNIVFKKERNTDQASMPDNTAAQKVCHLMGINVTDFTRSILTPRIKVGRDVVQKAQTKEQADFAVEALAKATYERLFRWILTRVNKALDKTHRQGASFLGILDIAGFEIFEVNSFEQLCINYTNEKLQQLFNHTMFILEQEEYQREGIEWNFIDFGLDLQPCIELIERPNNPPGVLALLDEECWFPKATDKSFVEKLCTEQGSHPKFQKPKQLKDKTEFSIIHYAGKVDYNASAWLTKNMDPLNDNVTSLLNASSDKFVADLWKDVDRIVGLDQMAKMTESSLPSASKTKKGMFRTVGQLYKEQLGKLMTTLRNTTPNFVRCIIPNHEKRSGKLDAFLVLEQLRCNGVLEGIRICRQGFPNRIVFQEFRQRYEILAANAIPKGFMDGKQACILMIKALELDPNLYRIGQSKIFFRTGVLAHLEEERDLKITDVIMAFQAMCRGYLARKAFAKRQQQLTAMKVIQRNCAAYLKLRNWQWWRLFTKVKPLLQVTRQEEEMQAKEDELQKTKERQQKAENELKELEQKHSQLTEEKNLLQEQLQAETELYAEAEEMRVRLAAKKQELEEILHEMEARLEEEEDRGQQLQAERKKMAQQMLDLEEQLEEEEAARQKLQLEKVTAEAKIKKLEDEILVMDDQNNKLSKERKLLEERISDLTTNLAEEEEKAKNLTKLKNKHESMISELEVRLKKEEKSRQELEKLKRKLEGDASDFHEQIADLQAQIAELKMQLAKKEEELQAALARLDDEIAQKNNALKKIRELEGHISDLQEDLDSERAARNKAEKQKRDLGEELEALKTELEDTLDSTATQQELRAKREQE

Sequence of MLCK (P11799 935-1906): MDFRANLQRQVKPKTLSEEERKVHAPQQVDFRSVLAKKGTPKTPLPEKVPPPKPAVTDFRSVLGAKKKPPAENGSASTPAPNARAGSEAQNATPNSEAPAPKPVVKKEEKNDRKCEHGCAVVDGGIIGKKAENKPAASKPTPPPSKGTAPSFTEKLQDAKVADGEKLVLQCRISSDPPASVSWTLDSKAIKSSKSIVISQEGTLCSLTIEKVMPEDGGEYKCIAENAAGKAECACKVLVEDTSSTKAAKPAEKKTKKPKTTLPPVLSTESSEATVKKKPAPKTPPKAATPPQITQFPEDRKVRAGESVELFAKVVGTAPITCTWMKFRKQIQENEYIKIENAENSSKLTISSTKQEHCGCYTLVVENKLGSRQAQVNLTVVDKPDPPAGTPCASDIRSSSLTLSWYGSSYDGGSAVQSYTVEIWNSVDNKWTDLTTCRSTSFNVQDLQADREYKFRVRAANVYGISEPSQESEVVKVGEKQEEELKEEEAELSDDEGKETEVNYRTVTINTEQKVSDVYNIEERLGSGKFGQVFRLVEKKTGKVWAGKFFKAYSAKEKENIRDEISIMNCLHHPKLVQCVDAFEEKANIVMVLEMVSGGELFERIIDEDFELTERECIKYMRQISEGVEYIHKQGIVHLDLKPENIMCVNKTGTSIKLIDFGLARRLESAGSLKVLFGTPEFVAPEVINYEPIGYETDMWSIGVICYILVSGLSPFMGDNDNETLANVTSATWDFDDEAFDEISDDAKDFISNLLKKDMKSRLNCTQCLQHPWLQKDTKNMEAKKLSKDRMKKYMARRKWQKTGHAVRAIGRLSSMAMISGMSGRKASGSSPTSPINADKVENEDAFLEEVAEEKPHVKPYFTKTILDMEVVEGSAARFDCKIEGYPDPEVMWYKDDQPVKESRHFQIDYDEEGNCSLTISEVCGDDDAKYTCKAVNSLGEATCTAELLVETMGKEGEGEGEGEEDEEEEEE
Sequence of UniProt P10587 (P10587 2-1979): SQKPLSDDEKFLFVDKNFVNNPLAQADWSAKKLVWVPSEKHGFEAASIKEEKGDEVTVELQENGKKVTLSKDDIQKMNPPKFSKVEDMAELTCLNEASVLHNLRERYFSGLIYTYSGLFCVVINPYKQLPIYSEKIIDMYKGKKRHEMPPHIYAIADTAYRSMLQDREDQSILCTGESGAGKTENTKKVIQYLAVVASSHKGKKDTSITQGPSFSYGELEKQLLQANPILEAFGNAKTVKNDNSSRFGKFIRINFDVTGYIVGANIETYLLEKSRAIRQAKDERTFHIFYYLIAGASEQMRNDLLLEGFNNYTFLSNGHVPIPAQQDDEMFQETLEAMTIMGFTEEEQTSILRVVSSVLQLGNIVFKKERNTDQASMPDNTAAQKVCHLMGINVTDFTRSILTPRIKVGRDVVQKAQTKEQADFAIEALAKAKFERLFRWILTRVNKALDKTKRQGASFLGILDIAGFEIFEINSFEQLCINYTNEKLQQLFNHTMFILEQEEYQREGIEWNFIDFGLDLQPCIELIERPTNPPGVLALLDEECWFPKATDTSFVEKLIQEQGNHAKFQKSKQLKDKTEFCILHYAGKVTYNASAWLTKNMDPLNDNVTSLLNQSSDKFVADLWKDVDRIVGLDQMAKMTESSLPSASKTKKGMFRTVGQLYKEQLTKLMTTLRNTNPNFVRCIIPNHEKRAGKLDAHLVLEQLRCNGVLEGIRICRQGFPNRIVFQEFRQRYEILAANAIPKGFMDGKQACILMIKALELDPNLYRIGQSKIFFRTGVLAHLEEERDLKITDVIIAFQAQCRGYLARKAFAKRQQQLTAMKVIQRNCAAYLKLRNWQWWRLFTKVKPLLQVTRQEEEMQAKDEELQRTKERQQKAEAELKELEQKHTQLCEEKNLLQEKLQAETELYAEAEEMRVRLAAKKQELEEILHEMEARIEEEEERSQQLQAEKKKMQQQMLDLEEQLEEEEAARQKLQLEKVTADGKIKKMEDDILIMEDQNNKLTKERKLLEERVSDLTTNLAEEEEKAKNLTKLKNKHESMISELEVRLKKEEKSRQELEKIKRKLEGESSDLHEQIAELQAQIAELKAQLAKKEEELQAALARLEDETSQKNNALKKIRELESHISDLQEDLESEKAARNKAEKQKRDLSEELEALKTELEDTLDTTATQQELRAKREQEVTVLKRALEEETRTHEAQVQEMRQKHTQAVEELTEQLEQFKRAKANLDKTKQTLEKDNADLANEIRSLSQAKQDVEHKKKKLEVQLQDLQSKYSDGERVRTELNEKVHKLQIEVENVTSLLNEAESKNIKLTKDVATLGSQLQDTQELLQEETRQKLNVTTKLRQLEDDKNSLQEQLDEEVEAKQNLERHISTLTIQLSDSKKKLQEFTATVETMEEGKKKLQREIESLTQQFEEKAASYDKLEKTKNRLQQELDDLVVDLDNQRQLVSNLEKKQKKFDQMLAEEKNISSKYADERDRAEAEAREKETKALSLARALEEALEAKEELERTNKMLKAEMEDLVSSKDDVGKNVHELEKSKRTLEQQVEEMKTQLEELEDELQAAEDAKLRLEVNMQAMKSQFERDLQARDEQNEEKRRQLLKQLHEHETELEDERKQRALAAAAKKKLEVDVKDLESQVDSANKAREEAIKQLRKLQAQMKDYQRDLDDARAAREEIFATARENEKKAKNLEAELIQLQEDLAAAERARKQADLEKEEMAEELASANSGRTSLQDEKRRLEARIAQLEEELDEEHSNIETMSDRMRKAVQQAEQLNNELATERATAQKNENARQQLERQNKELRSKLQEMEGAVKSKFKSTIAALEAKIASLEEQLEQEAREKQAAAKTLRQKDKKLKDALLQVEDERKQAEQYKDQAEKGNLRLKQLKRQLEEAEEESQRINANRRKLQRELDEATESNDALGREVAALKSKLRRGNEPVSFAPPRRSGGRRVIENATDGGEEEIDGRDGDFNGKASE

On to “MLCK N-terminal actin-binding region (from UniProt Q15746)”, for which, in the series with calmodulin, the Kd is 5 µM.

Turning to MLCK (from UniProt P11799), the Kd in series [1] is 0.8 µM. Turning to telokin telokin (from UniProt Q15746), the Ki in series [2] was 40 µM and 20 µM.
